± gives the standard deviation of the averaged measurements.
System: ATP
Assay: switch fluorescence ratio, 500 uM ATP over buffer (Cy3 cluster intensity, sum of 5 cycles each) (fold (ratio)); higher = stronger signal-on switching upon ATP binding; sequences stand for … in TCGTCGGCAGCGTCAGATGTGTATAAGAGACAGTTTTTTTTTTTTTTTTTTTTTTTTT…TC
Conditions: aptamer strand: ATP DNA aptamer (quencher-CACCTGGGGGAGTATTGCGGAGGAAGG + anchor), 100 nM annealed; ATP concentration: 500 uM
Method in brief: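 Values give the fluorescence ratio for each switch-domain sequence, averaged from per-cluster ratios of summed target-cycle to summed buffer-cycle Cy3 intensity. The Cy3-labelled switching-strand clusters sat on a modified Illumina MiSeq flow-cell, were annealed to 100 nM quencher-labelled ATP aptamer, and were imaged in selection buffer, then after 15 min with 500 uM ATP at 22 °C. Five cycles ran with NaOH stripping and re-annealing between them, and clusters outside 100-1000 RFU were excluded.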
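Further: ATP exposure 15 min at 22 °C before imaging.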

GGGTAAGGCT
switch fluorescence ratio: 1.01 ± 0.032

TCATACTTTT
switch fluorescence ratio: 1.01 ± 0.026

GCCATTAAAC
switch fluorescence ratio: 0.972 ± 0.03

AACGAAGGTA
switch fluorescence ratio: 0.9884 ± 0.0011

AGCTTATGTC
switch fluorescence ratio: 0.935 ± 0.057

CATTGTATGT
switch fluorescence ratio: 0.9421 ± 0.0087

ATTTAACGGT
switch fluorescence ratio: 1.03 ± 0.022

CGGGCTTGGG
switch fluorescence ratio: 0.968 ± 0.0031

GTTGAATGAC
switch fluorescence ratio: 1.04 ± 0.0083

AAACGGATGG
switch fluorescence ratio: 0.968 ± 0.016

AGAAATCTTG
switch fluorescence ratio: 0.983 ± 0.021

GGGTCGGTTT
switch fluorescence ratio: 1.01 ± 0.019

GCAGTATCAC
switch fluorescence ratio: 1.05 ± 0.028

TTTAGATAAA
switch fluorescence ratio: 1.02 ± 0.017

AGGGTGTTAG
switch fluorescence ratio: 1 ± 0.013

AATCAAAAAG
switch fluorescence ratio: 0.959 ± 0.018

GACAATTAGT
switch fluorescence ratio: 1.04 ± 0.0079

ATTTAGGGGG
switch fluorescence ratio: 0.966 ± 0.02

CAGGCATTAT
switch fluorescence ratio: 1.08 ± 0.043

TTCGTATCGG
switch fluorescence ratio: 0.978 ± 0.012

GATGTCGTTT
switch fluorescence ratio: 1.02 ± 0.049

TACGGTCGAG
switch fluorescence ratio: 1.1 ± 0.082

AATCGTTGAA
switch fluorescence ratio: 1.01 ± 0.017

CGCGCGGGTG
switch fluorescence ratio: 1.121 ± 0.011

CCGGTTATGA
switch fluorescence ratio: 1.04 ± 0.02

CTAGTAGAAG
switch fluorescence ratio: 1.01 ± 0.016

CGTATTAGTA
switch fluorescence ratio: 0.9926 ± 0.0054

CGAGGGGCCC
switch fluorescence ratio: 1.01 ± 0.036

TGGGCCGGTG
switch fluorescence ratio: 1.04 ± 0.05

TGGGTTCGGT
switch fluorescence ratio: 0.995 ± 0.0032

GATATGTTGG
switch fluorescence ratio: 0.999 ± 0.017

AGTTTTTGTC
switch fluorescence ratio: 0.953 ± 0.048

TTGAGAGGAT
switch fluorescence ratio: 0.972 ± 0.021

GGGTAAGCTG
switch fluorescence ratio: 1.04 ± 0.081

TAAGGTGGGT
switch fluorescence ratio: 1.002 ± 0.0017

GTGTTTGGAA
switch fluorescence ratio: 0.993 ± 0.012

ATCTCAGTGT
switch fluorescence ratio: 0.971 ± 0.04

GCTGTTTTTC
switch fluorescence ratio: 0.966 ± 0.03

TGGTGTTTTG
switch fluorescence ratio: 0.999 ± 0.031

ACCGTTTTGT
switch fluorescence ratio: 1.02 ± 0.019

TAATTTCTGG
switch fluorescence ratio: 0.9896 ± 0.0085

TTGGGGCCCA
switch fluorescence ratio: 1 ± 0.022

TTTTTATCAT
switch fluorescence ratio: 0.998 ± 0.037

ACGGTGAGGG
switch fluorescence ratio: 1.02 ± 0.026

GGGGTTGCTG
switch fluorescence ratio: 1 ± 0.024

TGTGTAAGAC
switch fluorescence ratio: 1.16 ± 0.022

GGGGGATGTA
switch fluorescence ratio: 0.948 ± 0.032

GTAATTTATG
switch fluorescence ratio: 1.01 ± 0.02

TAGAGGGATG
switch fluorescence ratio: 0.989 ± 0.015

GCTTATTGTT
switch fluorescence ratio: 0.99355 ± 0.00014

ATTAATCCAT
switch fluorescence ratio: 0.987 ± 0.019

TAGAGTTAAG
switch fluorescence ratio: 0.9747 ± 0.0046

CATTAAGGGT
switch fluorescence ratio: 0.992 ± 0.029

GGGGATTACG
switch fluorescence ratio: 0.984 ± 0.026

GCCGGGGGGA
switch fluorescence ratio: 1.03 ± 0.086

CGTAGTAACT
switch fluorescence ratio: 1.11 ± 0.022

CCGGGTGACC
switch fluorescence ratio: 1.143 ± 0.0068

CAGGATGAAT
switch fluorescence ratio: 0.999 ± 0.033

GGTATCTTAG
switch fluorescence ratio: 0.9857 ± 0.0087

GACTACGTTT
switch fluorescence ratio: 1.02 ± 0.013

AAAAACTTGT
switch fluorescence ratio: 1.03 ± 0.034

TGTTAGAACG
switch fluorescence ratio: 1.02 ± 0.015

CAAACGAGGT
switch fluorescence ratio: 0.994 ± 0.026

TCTGTGCATA
switch fluorescence ratio: 1.52 ± 0.1

TATTGGCTTG
switch fluorescence ratio: 0.985 ± 0.013

AAGAATGCGG
switch fluorescence ratio: 0.988 ± 0.027

CATAACTAAA
switch fluorescence ratio: 1 ± 0.012

TTTATGAAAT
switch fluorescence ratio: 1.12 ± 0.19

AGCAACAGTT
switch fluorescence ratio: 1.19 ± 0.28

TATCTTTGGG
switch fluorescence ratio: 0.981 ± 0.026

AGTATGGAGC
switch fluorescence ratio: 0.9983 ± 0.004

TGAAGATAAC
switch fluorescence ratio: 1.02 ± 0.026

GGGCACATGG
switch fluorescence ratio: 1.02 ± 0.029

AACAACCGGT
switch fluorescence ratio: 0.961 ± 0.031

TTTTTTATAT
switch fluorescence ratio: 0.987 ± 0.025

TCCCGTTTGA
switch fluorescence ratio: 1.01 ± 0.016

AGGCCCGTGT
switch fluorescence ratio: 0.98 ± 0.068

GTTGTCGTTT
switch fluorescence ratio: 0.99104 ± 0.00015

AAGGGGGTTA
switch fluorescence ratio: 0.991 ± 0.025

TTTCTCAGAG
switch fluorescence ratio: 0.995 ± 0.016

TTTTACTTCT
switch fluorescence ratio: 1.04 ± 0.062

GATGCATGC
switch fluorescence ratio: 1.22 ± 0.065

TAGGGTTTTC
switch fluorescence ratio: 0.988 ± 0.045

CGGGGGGCGC
switch fluorescence ratio: 0.969 ± 0.014

GGTCTAACAT
switch fluorescence ratio: 0.998 ± 0.015

CTAATAGTT
switch fluorescence ratio: 1 ± 0.048

AAAAAAGTGC
switch fluorescence ratio: 1.04 ± 0.051

GTAGTAGCGG
switch fluorescence ratio: 1.02 ± 0.025

TGTTTTGGGG
switch fluorescence ratio: 0.998 ± 0.035

TAACAGGAAT
switch fluorescence ratio: 0.966 ± 0.042

TAGGTAGGCA
switch fluorescence ratio: 1 ± 0.028

TCGGTTTATG
switch fluorescence ratio: 0.994 ± 0.023

GGGACGACAG
switch fluorescence ratio: 1.04 ± 0.031

TGTGAGTGTA
switch fluorescence ratio: 1.01 ± 0.025

TGCTCTAGGA
switch fluorescence ratio: 1.001 ± 0.0042

CGCTGATGGG
switch fluorescence ratio: 1.01 ± 0.071

CATTTGCCTT
switch fluorescence ratio: 1.03 ± 0.035

GGGGATTGCT
switch fluorescence ratio: 0.986 ± 0.025

TGGGAAGGTG
switch fluorescence ratio: 1.7 ± 0.33

TCAGGGGGGC
switch fluorescence ratio: 1.28 ± 0.62

CGGGGGTTGC
switch fluorescence ratio: 0.977 ± 0.042

ATTTGTATTC
switch fluorescence ratio: 1.03 ± 0.031

TATCTTAAAT
switch fluorescence ratio: 0.997 ± 0.028

GGTTCAGGCT
switch fluorescence ratio: 0.977 ± 0.025

AAACGGGGTA
switch fluorescence ratio: 1.01 ± 0.033

AGTTTCCTGC
switch fluorescence ratio: 1.01 ± 0.015

AAATCGAAAC
switch fluorescence ratio: 1.03 ± 0.038

ATCGGGGGAA
switch fluorescence ratio: 1.05 ± 0.062

TGAGCGGGTG
switch fluorescence ratio: 1.01 ± 0.01

AAATCTTAAA
switch fluorescence ratio: 0.9917 ± 0.0023

TCGATACGAT
switch fluorescence ratio: 0.994 ± 0.018

AATTGTCGCG
switch fluorescence ratio: 1.01 ± 0.012

AAAGGGTAAG
switch fluorescence ratio: 0.975 ± 0.015

CCGCGGATGG
switch fluorescence ratio: 1.25 ± 0.15

CATAGAAGCT
switch fluorescence ratio: 0.976 ± 0.048

GCGGGGGGGC
switch fluorescence ratio: 1.01 ± 0.017

GGGGTAAATT
switch fluorescence ratio: 1 ± 0.039

TCATACGGTA
switch fluorescence ratio: 1.179 ± 0.005

GAAGGGTAAC
switch fluorescence ratio: 1.03 ± 0.018

CGGGCTGAGA
switch fluorescence ratio: 1.045 ± 0.0048

TCTGGGGGTT
switch fluorescence ratio: 1.02 ± 0.054

CCTTAGTTGG
switch fluorescence ratio: 1.02 ± 0.056

AGGAAGAGGC
switch fluorescence ratio: 1.08 ± 0.18

AACATGAGGA
switch fluorescence ratio: 1 ± 0.02

AGGGCAAGGA
switch fluorescence ratio: 1.11 ± 0.16

TATAGTCATT
switch fluorescence ratio: 1.02 ± 0.022

ACAGGGGAGA
switch fluorescence ratio: 1.03 ± 0.024

AAGAGAACTT
switch fluorescence ratio: 0.993 ± 0.013

GGCAACCATA
switch fluorescence ratio: 1.02 ± 0.032

AATATGGAGG
switch fluorescence ratio: 0.985 ± 0.033

CAAGTCTATT
switch fluorescence ratio: 1.01 ± 0.04

TTTTTTGTGA
switch fluorescence ratio: 1 ± 0.08

TTAATATTTG
switch fluorescence ratio: 1.01 ± 0.041

CGGGGTTGTG
switch fluorescence ratio: 0.966 ± 0.014

CATTCGTTTC
switch fluorescence ratio: 1.15 ± 0.05

TTTACGTGCA
switch fluorescence ratio: 1.04 ± 0.073

TTTCGGTGCT
switch fluorescence ratio: 1.03 ± 0.049

TTGTAGGGAA
switch fluorescence ratio: 1.03 ± 0.013

GTGGGGGATG
switch fluorescence ratio: 1 ± 0.033

CGGGTGGAGG
switch fluorescence ratio: 1.02 ± 0.018

ATGGGGCACG
switch fluorescence ratio: 0.987 ± 0.037

TTTCATGATC
switch fluorescence ratio: 1 ± 0.026

AGGGATTGC
switch fluorescence ratio: 0.973 ± 0.027

CAGGAAAATT
switch fluorescence ratio: 1 ± 0.032

GCTAGGGGAA
switch fluorescence ratio: 0.985 ± 0.031

ATTTAAGTT
switch fluorescence ratio: 1.0014 ± 0.00081

CGATATGGTT
switch fluorescence ratio: 1 ± 0.025

TAATGAGGAA
switch fluorescence ratio: 1.004 ± 0.01

AACGAGTGAC
switch fluorescence ratio: 1.04 ± 0.019

TGTTTTATCT
switch fluorescence ratio: 0.9857 ± 0.0073

AATATTGTT
switch fluorescence ratio: 0.996 ± 0.01

TCCTAGTTGA
switch fluorescence ratio: 1.024 ± 0.0012

CTACTTGATA
switch fluorescence ratio: 0.978 ± 0.017

TCGATCGGGT
switch fluorescence ratio: 0.991 ± 0.035

GGACGATTTG
switch fluorescence ratio: 1.05 ± 0.054

GGGTTTTACA
switch fluorescence ratio: 0.9813 ± 0.0029

ATCGTGCCGT
switch fluorescence ratio: 1.01 ± 0.041
